# Source: PMC5928759, “D-Serine Metabolism and Its Importance in Development of Dictyostelium discoideum” (Frontiers in Microbiology, 2018)
# B1: D-amino acid oxidase (DAO; DDB0238432 protein) (Dictyostelium discoideum) (protein)
# chain: MNQNKNNNNKNPKINLLIIGCGCIGLSTGIIALKSGNYKSVSIWAKDLPPNTTSNKAAALWYPFLCNPLDLVGKWSAETMQYYKDHIINDPKSGTITKKVNEIFRRPHPEDPEWKPYIKSFRRARKDELPDGYVDGYAIDDGFVMDTDMYMDYLVDQFKSLGGIIEQRHLVDIREAFVDHDVVVNCTGLGSRELFNDRTIYPGRGQIIVIKNSTDRSIMDEEDHIAYVIPRLTNTVLGGTNQEHDYNTNPTKKDTEEILKRVAMISPRFAKNRIEIQGVKVGLRPARHEIRLENEFFEGGSKLVVHNYGHGGSGFTVSWGCAIEAIKLVDQGLPKLLHFNKLISKL
# Assays:
# [1] = target: T1, D-amino acid oxidase (DAO; DDB0238432 protein) (Dictyostelium discoideum, UniProt Q556W1); test: UV-visible spectrum of purified enzyme; assay type: binding; settings: oxidized flavin, maxima around 360 and 450 nm; FAD in storage buffer
# T1 construct: gene ddo-1; cDNA from EST clone in pET15b, N-terminal 6-His tag, expressed in E. coli Rosetta (DE3), Ni-NTA purified
# [2] = substrate: C[C@@H](N)C(=O)O; test: purified protein; settings: oxidative deamination, 50 mM Tris-HCl pH 8.5, 20 μM FAD
# [3] = substrate: N[C@H](CO)C(=O)O; test: purified protein; settings: oxidative deamination, 50 mM Tris-HCl pH 8.5, 20 μM FAD
Molecule,UV-visible spectrum of purified enzyme [1],Km [2] [mM],kcat [2] [s⁻¹],kcat/Km [2] [M⁻¹ s⁻¹],Km [3] [mM],kcat [3] [s⁻¹],kcat/Km [3] [M⁻¹ s⁻¹]
Cc1cc2nc3c(=O)[nH]c(=O)nc-3n(C[C@H](O)[C@H](O)[C@H](O)COP(=O)(O)OP(=O)(O)OC[C@H]3O[C@@H](n4cnc5c(N)ncnc54)[C@H](O)[C@@H]3O)c2cc1C [FAD],indicating that it possesses an oxidized form of the flavin cofactor,,,,,,
B1,,0.78 ± 0.05,0.53,680,6.1 ± 0.78,0.05,10
